The record followed here is the supplement of paper PMC7877785.

The nature of this data set: self-splicing fitness, log relative to wild type (ln ratio); higher = more splicing; Tetrahymena group I intron in knt gene, E. coli kanamycin selection, DiMSum; sequences stand for … in CUCUCU…GGAGGGAAAAGUUAUCAGGCAUGCACCUGGUAGCUAGUCUUUAAACCAAUAGAUUGCAUCGGUUUAAAAGGCAAGACCGUCAAAUUGCGGGAAAGGGGUCAACAGCCGUUCAGUACCAAGUCUCAGGGGAAACUUUGAGAUGGCCUUGCAAAGGGUAUGGUAAUAAGCUGACGGACAUGGUCCUAACCACGCAGCCAAGUCCUAAGUCAACAGAUCUUCUGUUGAUAUGGAUGCAGUUCACAGACUAAAUGUCGGUCGGGGAAGAUGUAUUCUUCUCAUAAGAUAUAGUCGGACCUCUCCUUAAUGGGAGCUAGCGGAUGAAGUGAUGCAACACUGGAGCCGCUGGGAACUAAUUUGUAUGCGAAAGUAUAUUGAUUAGUUUUGGAGUACUCGUGGUCG
In outline:
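Six replicate transformations of E. coli BL21(DE3) with a pET-22b(+) library were grown overnight at 37°C or 30°C. The library randomised all eight P1ex-region intron nucleotides, the intron lying in the knt kanamycin-resistance gene, and plates were LB agar with or without 25 μg/mL kanamycin plus 100 μg/mL carbenicillin, 50 μM IPTG and 0.2% rhamnose. Pooled colonies were amplicon-sequenced on an Illumina HiSeq 2500, and fitness is the DiMSum error-weighted combination of wild-type-normalised replicate fold changes, kanamycin versus none.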

± gives the uncertainty stated by the source.

Take GUGAAGCAAUAUUACGUCCA: the “self-splicing fitness (ln)” value runs as follows: (30 °C) -0.721 ± 0.16; (37 °C) 0.775 ± 0.22.

In the case of CCAUAGCAAUAUUACGAAAC, the “self-splicing fitness (ln)” value reads like this: (30 °C) -4.09 ± 0.35; (37 °C) -2 ± 0.29.

With CCUAAGCAAUAUUACGGCUU, the “self-splicing fitness (ln)” value is -3.04 ± 0.15 (30 °C) and -3.04 ± 0.21 (37 °C).

Regarding UCAUAGCAAUAUUACGUCGU, the “self-splicing fitness (ln)” value is -3.88 ± 0.39 (30 °C) and -1.79 ± 0.38 (37 °C).

ACGAAGCAAUAUUACGGGGG: the “self-splicing fitness (ln)” value (30 °C) is -2.58 ± 0.15 and the “self-splicing fitness (ln)” value (37 °C) is -2.27 ± 0.25.

With CACGAGCAAUAUUACGCGAG, the “self-splicing fitness (ln)” value (30 °C) was -1.52 ± 0.17 and the “self-splicing fitness (ln)” value (37 °C) is -2.5 ± 0.26.

As for GUGGAGCAAUAUUACGAUGG, the “self-splicing fitness (ln)” value (37 °C) was -2.9 ± 0.38.

Take CUUUAGCAAUAUUACGCCUU: the “self-splicing fitness (ln)” value by setting is: (30 °C) -2.77 ± 0.31; (37 °C) -2.94 ± 0.43.

Turning to UGCUAGCAAUAUUACGUUGC, the “self-splicing fitness (ln)” value is -3.53 ± 0.34 (30 °C) and -1.77 ± 0.23 (37 °C).

Take UUCUAGCAAUAUUACGUACG: the “self-splicing fitness (ln)” value is, setting by setting: (30 °C) -1.82 ± 0.14; (37 °C) -0.281 ± 0.14.

As to UCAGAGCAAUAUUACGGGUU, the “self-splicing fitness (ln)” value was -3.76 ± 0.46 (30 °C) and -1.58 ± 0.26 (37 °C).

As for CACGAGCAAUAUUACGUUCG, the “self-splicing fitness (ln)” value is -4.18 ± 0.29 (30 °C) and -2.75 ± 0.21 (37 °C).

For the sequence CAGCAGCAAUAUUACGGUCG, the “self-splicing fitness (ln)” value reads like this: (30 °C) 0.264 ± 0.053; (37 °C) 0.584 ± 0.08.

For the sequence UAGAAGCAAUAUUACGACCA, the “self-splicing fitness (ln)” value is, setting by setting: (30 °C) -0.67 ± 0.094; (37 °C) -0.157 ± 0.12.

Regarding UGGGAGCAAUAUUACGCGGC, the “self-splicing fitness (ln)” value (30 °C) was -2.57 ± 0.34 and the “self-splicing fitness (ln)” value (37 °C) is -1.35 ± 0.28.

Regarding AUUCAGCAAUAUUACGAACC, the “self-splicing fitness (ln)” value was -0.503 ± 0.16 (30 °C) and -0.325 ± 0.2 (37 °C).

Take GUAAAGCAAUAUUACGAUAA: the “self-splicing fitness (ln)” value (30 °C) was -0.115 ± 0.076 and the “self-splicing fitness (ln)” value (37 °C) came out at 0.632 ± 0.11.

UACCAGCAAUAUUACGCAGA: the “self-splicing fitness (ln)” value is, setting by setting: (30 °C) -1.24 ± 0.11; (37 °C) -0.165 ± 0.11.

Regarding CUCUAGCAAUAUUACGUUCG, the “self-splicing fitness (ln)” value (30 °C) is -3.54 ± 0.19 and the “self-splicing fitness (ln)” value (37 °C) is -2.33 ± 0.18.

Regarding GAGGAGCAAUAUUACGAAUA, the “self-splicing fitness (ln)” value (30 °C) is -3.68 ± 0.4 and the “self-splicing fitness (ln)” value (37 °C) was -3.08 ± 0.38.

For the sequence AUAUAGCAAUAUUACGUCUA, the “self-splicing fitness (ln)” value was -0.735 ± 0.12 (30 °C) and -0.495 ± 0.12 (37 °C).

In the case of ACGUAGCAAUAUUACGGUUG, the “self-splicing fitness (ln)” value (30 °C) was -2.6 ± 0.1 and the “self-splicing fitness (ln)” value (37 °C) was -0.902 ± 0.12.

With UCUGAGCAAUAUUACGUAAA, the “self-splicing fitness (ln)” value runs as follows: (30 °C) -3.29 ± 0.19; (37 °C) -1.69 ± 0.18.

For AUCAAGCAAUAUUACGAAGG, the “self-splicing fitness (ln)” value reads like this: (30 °C) -3.36 ± 0.19; (37 °C) -2.96 ± 0.26.

Regarding GUCAAGCAAUAUUACGUUCA, the “self-splicing fitness (ln)” value (30 °C) was -1.13 ± 0.1 and the “self-splicing fitness (ln)” value (37 °C) is -0.987 ± 0.16.

With GGACAGCAAUAUUACGCUCA, the “self-splicing fitness (ln)” value (30 °C) was -0.215 ± 0.12 and the “self-splicing fitness (ln)” value (37 °C) is -0.136 ± 0.15.

For the sequence GUGCAGCAAUAUUACGCGAU, the “self-splicing fitness (ln)” value (30 °C) is -3.78 ± 0.31 and the “self-splicing fitness (ln)” value (37 °C) was -1.45 ± 0.31.

With GUGCAGCAAUAUUACGUUUU, the “self-splicing fitness (ln)” value was -2.08 ± 0.096 (30 °C) and -1.69 ± 0.096 (37 °C).

Take GACAAGCAAUAUUACGUCAU: the “self-splicing fitness (ln)” value was -3.05 ± 0.15 (30 °C) and -2.62 ± 0.16 (37 °C).

In the case of GUGCAGCAAUAUUACGCGAC, the “self-splicing fitness (ln)” value by setting is: (30 °C) -3.59 ± 0.34; (37 °C) -1.8 ± 0.2.

With UCACAGCAAUAUUACGGGGC, the “self-splicing fitness (ln)” value (30 °C) is -4.05 ± 0.21 and the “self-splicing fitness (ln)” value (37 °C) was -2.4 ± 0.15.

Regarding UACUAGCAAUAUUACGCGCG, the “self-splicing fitness (ln)” value (30 °C) was -0.375 ± 0.12 and the “self-splicing fitness (ln)” value (37 °C) is -0.0222 ± 0.12.

As for GUGUAGCAAUAUUACGGCUA, the “self-splicing fitness (ln)” value runs as follows: (30 °C) -1.84 ± 0.34; (37 °C) -2.77 ± 0.32.

With UUAAAGCAAUAUUACGACCG, the “self-splicing fitness (ln)” value runs as follows: (30 °C) -0.379 ± 0.12; (37 °C) 0.397 ± 0.16.

Regarding ACGCAGCAAUAUUACGACAA, the “self-splicing fitness (ln)” value by setting is: (30 °C) -1.61 ± 0.12; (37 °C) -0.427 ± 0.097.

UCAGAGCAAUAUUACGAGGG: the “self-splicing fitness (ln)” value is -2.95 ± 0.16 (30 °C) and -1.94 ± 0.16 (37 °C).

In the case of GCGGAGCAAUAUUACGGGCG, the “self-splicing fitness (ln)” value (30 °C) is -1.83 ± 0.13 and the “self-splicing fitness (ln)” value (37 °C) is -1.21 ± 0.17.

As for GUCAAGCAAUAUUACGUCAA, the “self-splicing fitness (ln)” value runs as follows: (30 °C) -2.48 ± 0.1; (37 °C) -1.87 ± 0.11.
